We go through 1 substance from publication PMC9776105.

For this test, the target named is single chain variable fragment (scFv) from the CR3022 antibody with a cysteine-containing linker. Put plainly: SPR. (In general: SPR reads the build-up and loss of mass on a sensor chip optically.)

For “Spike Receptor Binding Domain SARS-CoV-2 (from UniProt P0DTC2) (domain or fragment)”, the SPR response in the specificity test is 4.22 ru, the change in Resonance Unit at 50 ng/mL RBD was found to be 1.13 RU, the change in Resonance Unit at 100 ng/mL RBD stood at 3.01 RU and the change in Resonance Unit at 150 ng/mL RBD is 3.74 RU. The change in Resonance Unit at 200 ng/mL RBD was found to be 3.98 RU.
